From publication PMC10397247

Legend:
Assay in all cases: two-hybrid library CCmax;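 note: natural log of median RNA to DNA barcode read ratio; higher means stronger binding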
[1] = target: T1, 4H745-AA; conditions: mean of both orientations
T1 chain: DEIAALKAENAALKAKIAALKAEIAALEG

[2] = target: T2, 4H3865-AA; conditions: mean of both orientations
T2 chain: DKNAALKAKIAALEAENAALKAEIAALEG

[3] = target: T3, 4H2473-AA
T3 chain: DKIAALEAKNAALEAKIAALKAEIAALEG

[4] = target: T4, 4H891-AA; conditions: mean of both orientations
T4 chain: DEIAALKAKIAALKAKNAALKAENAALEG

[5] = target: T5, 4H310-AA; conditions: mean of both orientations
T5 chain: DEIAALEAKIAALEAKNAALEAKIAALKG

[6] = target: T6, 4H458-AA; conditions: mean of both orientations
T6 chain: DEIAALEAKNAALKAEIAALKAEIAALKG

[7] = target: T7, 4H2698-AA; conditions: mean of both orientations
T7 chain: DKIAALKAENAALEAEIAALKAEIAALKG

[8] = target: T8, 4H797-AA; conditions: mean of both orientations
T8 chain: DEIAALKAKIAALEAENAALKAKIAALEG

[9] = target: T9, 4H3410-AA; conditions: mean of both orientations
T9 chain: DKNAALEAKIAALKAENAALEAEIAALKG

[10] = target: T10, 4H3165-AA; conditions: mean of both orientations
T10 chain: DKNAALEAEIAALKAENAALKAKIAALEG

[11] = target: T11, 4H485-AA; conditions: mean of both orientations
T11 chain: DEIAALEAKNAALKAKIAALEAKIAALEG

[12] = target: T12, 4H536-AA; conditions: mean of both orientations
T12 chain: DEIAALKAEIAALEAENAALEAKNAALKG

[13] = target: T13, 4H3753-AA; conditions: mean of both orientations
T13 chain: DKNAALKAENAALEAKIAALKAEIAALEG

[14] = target: T14, 4H909-AA; conditions: mean of both orientations
T14 chain: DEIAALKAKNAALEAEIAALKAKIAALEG

[15] = target: T15, 4H94-AA; conditions: mean of both orientations
T15 chain: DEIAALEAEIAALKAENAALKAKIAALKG

[16] = target: T16, 4H3009-AA; conditions: mean of both orientations
T16 chain: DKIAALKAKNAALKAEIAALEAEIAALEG

[17] = target: T17, 4H3120-AA; conditions: mean of both orientations
T17 chain: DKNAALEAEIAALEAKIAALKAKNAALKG

[18] = target: T18, 4H3697-AA; conditions: mean of both orientations
T18 chain: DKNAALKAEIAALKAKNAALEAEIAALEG

[19] = target: T19, 4H2725-AA; conditions: mean of both orientations
T19 chain: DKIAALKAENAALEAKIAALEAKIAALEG

[20] = target: T20, 4H930-AA; conditions: mean of both orientations
T20 chain: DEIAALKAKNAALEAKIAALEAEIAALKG

[21] = target: T21, 4H2649-AA; conditions: mean of both orientations
T21 chain: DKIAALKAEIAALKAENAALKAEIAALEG

[22] = target: T22, 4H629-AA; conditions: mean of both orientations
T22 chain: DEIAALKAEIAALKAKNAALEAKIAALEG

[23] = target: T23, 4H3016-AA; conditions: mean of both orientations
T23 chain: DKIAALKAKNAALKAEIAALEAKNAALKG

[24] = target: T24, 4H710-AA; conditions: mean of both orientations
T24 chain: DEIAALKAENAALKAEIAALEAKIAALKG

[25] = target: T25, 4H570-AA; conditions: mean of both orientations
T25 chain: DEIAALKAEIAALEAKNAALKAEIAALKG

[26] = target: T26, 4H3395-AA; conditions: mean of both orientations
T26 chain: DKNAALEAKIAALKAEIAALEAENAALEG

[27] = target: T27, 4H3381-AA; conditions: mean of both orientations
T27 chain: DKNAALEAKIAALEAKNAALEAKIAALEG

[28] = target: T28, 4H850-AA; conditions: mean of both orientations
T28 chain: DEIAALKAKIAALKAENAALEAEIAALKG

[29] = target: T29, 4H2865-AA; conditions: mean of both orientations
T29 chain: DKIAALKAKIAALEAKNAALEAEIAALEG

[30] = target: T30, 4H3130-AA; conditions: mean of both orientations
T30 chain: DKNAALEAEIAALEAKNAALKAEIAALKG

[31] = target: T31, 4H3590-AA; conditions: mean of both orientations
T31 chain: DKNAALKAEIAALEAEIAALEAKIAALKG

[32] = target: T32, 4H2729-AA; conditions: mean of both orientations
T32 chain: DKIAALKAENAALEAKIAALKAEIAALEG

[33] = target: T33, 4H2837-AA; conditions: mean of both orientations
T33 chain: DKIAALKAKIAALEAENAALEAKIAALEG

[34] = target: T34, 4H3343-AA; conditions: mean of both orientations
T34 chain: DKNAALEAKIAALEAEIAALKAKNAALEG

[35] = target: T35, 4H3844-AA; conditions: mean of both orientations
T35 chain: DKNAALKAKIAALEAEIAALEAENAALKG

[36] = target: T36, 4H317-AA; conditions: mean of both orientations
T36 chain: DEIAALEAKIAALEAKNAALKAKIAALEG

[37] = target: T37, 4H2944-AA; conditions: mean of both orientations
T37 chain: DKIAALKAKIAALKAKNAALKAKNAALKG

[38] = target: T38, 4H780-AA; conditions: mean of both orientations
T38 chain: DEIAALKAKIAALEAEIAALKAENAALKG

[39] = target: T39, 4H3921-AA; conditions: mean of both orientations
T39 chain: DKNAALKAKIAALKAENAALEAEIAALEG

[40] = target: T40, 4H2617-AA; conditions: mean of both orientations
T40 chain: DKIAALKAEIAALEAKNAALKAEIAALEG

[41] = target: T41, 4H429-AA; conditions: mean of both orientations
T41 chain: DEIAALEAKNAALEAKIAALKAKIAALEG

[42] = target: T42, 4H3655-AA; conditions: mean of both orientations
T42 chain: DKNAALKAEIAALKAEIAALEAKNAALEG

[43] = target: T43, 4H605-AA; conditions: mean of both orientations
T43 chain: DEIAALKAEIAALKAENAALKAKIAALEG

[44] = target: T44, 4H454-AA; conditions: mean of both orientations
T44 chain: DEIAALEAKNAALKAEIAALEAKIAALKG

[45] = target: T45, 4H881-AA
T45 chain: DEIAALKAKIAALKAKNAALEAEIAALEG

[46] = target: T46, 4H678-AA; conditions: mean of both orientations
T46 chain: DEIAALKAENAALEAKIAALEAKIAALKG

[47] = target: T47, 4H794-AA; conditions: mean of both orientations
T47 chain: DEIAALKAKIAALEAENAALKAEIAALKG

[48] = target: T48, 4H3627-AA; conditions: mean of both orientations
T48 chain: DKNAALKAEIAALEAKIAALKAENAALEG

[49] = target: T49, 4H993-AA; conditions: mean of both orientations
T49 chain: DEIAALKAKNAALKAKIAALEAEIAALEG

[50] = target: T50, 4H2575-AA
T50 chain: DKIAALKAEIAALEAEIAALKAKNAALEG

[51] = target: T51, 4H717-AA; conditions: mean of both orientations
T51 chain: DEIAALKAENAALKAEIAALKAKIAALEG

[52] = target: T52, 4H3112-AA; conditions: mean of both orientations
T52 chain: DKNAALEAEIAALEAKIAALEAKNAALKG

[53] = target: T53, 4H2754-AA; conditions: mean of both orientations
T53 chain: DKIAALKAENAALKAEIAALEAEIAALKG

[54] = target: T54, 4H335-AA; conditions: mean of both orientations
T54 chain: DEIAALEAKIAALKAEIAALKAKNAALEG

[55] = target: T55, 4H2949-AA; conditions: mean of both orientations
T55 chain: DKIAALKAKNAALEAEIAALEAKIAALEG

[56] = target: T56, 4H3427-AA; conditions: mean of both orientations
T56 chain: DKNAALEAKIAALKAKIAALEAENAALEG

[57] = target: T57, 4H906-AA; conditions: mean of both orientations
T57 chain: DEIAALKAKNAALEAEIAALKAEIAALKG

[58] = target: T58, 4H342-AA; conditions: mean of both orientations
T58 chain: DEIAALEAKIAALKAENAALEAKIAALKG

[59] = target: T59, 4H2642-AA; conditions: mean of both orientations
T59 chain: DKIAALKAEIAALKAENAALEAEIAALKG

[60] = target: T60, 4H566-AA; conditions: mean of both orientations
T60 chain: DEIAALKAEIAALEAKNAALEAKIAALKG

Question: For DKIAALEAKNAALEAKIAALKAEIAALEG [4H2473-AA], which interaction score [1] is on record?
Answer: The interaction score was -1.45.

Question: And the interaction score [2]?
Answer: The interaction score was -0.611.

Question: And the interaction score [3]?
Answer: The interaction score was 1.2.

Question: What about the interaction score [4] of the same binder?
Answer: Its interaction score is -1.65.

Question: And the interaction score [5]?
Answer: The interaction score was -0.305.

Question: And the interaction score [6]?
Answer: The interaction score was 1.39.

Question: And the interaction score [7]?
Answer: Its interaction score is 1.68.

Question: What about the interaction score [8] of the same binder?
Answer: The interaction score was -1.58.

Question: And the interaction score [9]?
Answer: Its interaction score is -0.429.

Question: What about the interaction score [10] of the same binder?
Answer: The interaction score was -1.43.

Question: And the interaction score [11]?
Answer: The interaction score was 0.85.

Question: And the interaction score [12]?
Answer: Its interaction score is -1.67.

Question: What about the interaction score [13] of the same binder?
Answer: Its interaction score is -0.919.

Question: What about the interaction score [14] of the same binder?
Answer: The interaction score was 0.0276.

Question: What about the interaction score [15] of the same binder?
Answer: The interaction score was -0.873.

Question: And the interaction score [16]?
Answer: The interaction score was 2.07.

Question: What about the interaction score [17] of the same binder?
Answer: Its interaction score is -0.0619.

Question: What about the interaction score [18] of the same binder?
Answer: Its interaction score is -1.54.

Question: What about the interaction score [19] of the same binder?
Answer: The interaction score was 0.607.

Question: And the interaction score [20]?
Answer: The interaction score was -0.124.

Question: And the interaction score [21]?
Answer: Its interaction score is -0.843.

Question: What about the interaction score [22] of the same binder?
Answer: The interaction score was -1.34.

Question: What about the interaction score [23] of the same binder?
Answer: The interaction score was 1.52.

Question: What about the interaction score [24] of the same binder?
Answer: The interaction score was 0.747.

Question: What about the interaction score [25] of the same binder?
Answer: The interaction score was 1.26.

Question: What about the interaction score [26] of the same binder?
Answer: Its interaction score is -1.43.

Question: What about the interaction score [27] of the same binder?
Answer: Its interaction score is -1.15.

Question: And the interaction score [28]?
Answer: The interaction score was -0.625.

Question: And the interaction score [29]?
Answer: Its interaction score is -0.67.

Question: What about the interaction score [30] of the same binder?
Answer: Its interaction score is -0.173.

Question: And the interaction score [31]?
Answer: Its interaction score is 1.18.

Question: How did the interaction score [32] turn out when DKIAALKAEIAALEAEIAALKAKNAALEG [4H2575-AA] was run?
Answer: Its interaction score is 0.467.

Question: And the interaction score [33]?
Answer: Its interaction score is -1.05.

Question: And the interaction score [34]?
Answer: The interaction score was -0.0872.

Question: And the interaction score [35]?
Answer: Its interaction score is -0.532.

Question: What about the interaction score [36] of the same binder?
Answer: Its interaction score is 0.149.

Question: And the interaction score [37]?
Answer: Its interaction score is -0.604.

Question: And the interaction score [38]?
Answer: The interaction score was 0.14.

Question: And the interaction score [39]?
Answer: The interaction score was -1.45.

Question: And the interaction score [40]?
Answer: The interaction score was 0.75.

Question: And the interaction score [41]?
Answer: The interaction score was -0.196.

Question: And the interaction score [42]?
Answer: The interaction score was -0.814.

Question: And the interaction score [43]?
Answer: The interaction score was -1.27.

Question: And the interaction score [44]?
Answer: Its interaction score is 1.03.

Question: What about the interaction score [45] of the same binder?
Answer: The interaction score was -0.902.

Question: And the interaction score [46]?
Answer: The interaction score was -0.968.

Question: What about the interaction score [47] of the same binder?
Answer: Its interaction score is -1.27.

Question: And the interaction score [48]?
Answer: Its interaction score is 0.318.

Question: And the interaction score [49]?
Answer: The interaction score was -0.15.

Question: And the interaction score [50]?
Answer: The interaction score was 1.9.

Question: What about the interaction score [51] of the same binder?
Answer: The interaction score was -1.25.

Question: And the interaction score [52]?
Answer: The interaction score was -0.383.

Question: And the interaction score [53]?
Answer: Its interaction score is -1.28.

Question: What about the interaction score [54] of the same binder?
Answer: Its interaction score is 1.88.

Question: And the interaction score [55]?
Answer: The interaction score was -0.954.

Question: What about the interaction score [56] of the same binder?
Answer: Its interaction score is 0.849.

Question: And the interaction score [57]?
Answer: Its interaction score is -1.56.

Question: And the interaction score [58]?
Answer: Its interaction score is 1.14.

Question: And the interaction score [59]?
Answer: Its interaction score is -1.2.

Question: What about the interaction score [60] of the same binder?
Answer: The interaction score was -1.21.
